Consider three molecules from patent publication US7608265B2, “Treatment for bacterial infections” (priority 2004, dated 2009).

≈ marks a conversion by molar mass, not a printed value. Like-named read-outs stand apart in the source and are kept apart here.

In experiment [1] the test system is Clostridium difficile NCR 1104. In words: microbe, parasite or virus in culture. The format is cell-based.
Experiment [2] concerns Vancomycin resistant Enterococcus faecium. In words: Combination drug MIC (checkerboard), Enterococcus faecium. It is filed as cell-based.
The next experiment relates to C. difficile 14000287. Put plainly: Combination drug MIC (checkerboard), C. difficile 14000287, Brucella broth. It is filed as cell-based, Clostridium difficile.
The next experiment deals with C. difficile NCTC 11204. Put plainly: Combination drug MIC (checkerboard), C. difficile NCTC 11204, RCM. The format is cell-based, Clostridium difficile.
A further experiment relates to Clostridium difficile. Put plainly: Growth of Clostridium difficile in the presence of SCFA and H1L1 (OD600). Particulars: for Mean Optical Density at 24 Hours: OD600. The format is cell-based. On the procedure: The three SCFAs used were acetate, propionate and butyrate.
Each was prepared to a concentration of 1 M as follows: • Sodium acetate FW 82.03-82.03 g in 1 litre dH2O • Sodium butyrate FW 110.09-110.09 g in 1 litre dH2O • Sodium propionate FW 96.06-96.06 g in 1 litre dH2O
The three solutions were combined in a ratio of 70:20:10 respectively. Therefore, in the final solution the concentrations were sodium acetate 0.7 M, sodium butyrate 0.2 M and sodium propionate 0.1 M. The final concentration of total SCFA was 1 M.
From this stock solution concentrations of 5, 10, 20, 30, 40 and 50 mM total SCFA were prepared using reinforced clostridial medium (RCM, DIFCO).
Reinforced clostridial medium (RCM) was prepared according to the manufacturers instructions: 38 g in 1 litre dH2O
Cultures were only removed from anaerobic conditions immediately prior to use.
An overnight suspension of C. difficile was made by inoculation 10 ml of RCM medium with colonies from a 48 hour old Columbia Blood Agar plate of the organism. The suspension was incubated for 24 hours at 37° C. under anaerobic conditions.
In a flat-bottomed 96 well microtitre plate control solutions (200 μl) were placed in the wells as outlined below in Table 4. Each control used 3 wells.
In a flat-bottomed 96 well microtitre plate (rows labelled A-H, columns labelled 1-12) test solutions (100 μl) were placed in the wells as detailed below. The two test solutions, SCFA plus H1L1, give a combined volume of 200 μl. Each test used 2 wells. […] Wells in columns 1 and 2 contained 16 μg/ml H1L1; in columns 3 and 4, 8 μg/ml H1L1; in columns 5 and 6, 4 μg/ml H1L1; in columns 7 and 8, 2 μg/ml H1L1; in columns 9 and 10, 1 μg/ml H1L1; in columns 11 and 12, 0.5 μg/ml H1L1. Row G was empty. 200 μl RCM was placed into all the wells in row H as a growth control for the plate.
The overnight suspension, culture at late log phase, was used to inoculate the microtitre plates. 20 μl (approx 10% inoculum) was added to all the wells, except for the media/negative control on the control plate.
Plates were incubated at 37° C. under anaerobic conditions for 24 hours.
Optical density readings (OD600 nm) were made at time points zero and 24 hours. Average OD600 nm readings were determined.

Experiment [3] relates to C. difficile acetyl-CoA acetyl transferase (thiolase). Put plainly: Immunoblot of H1L1 against cloned acetyl-CoA acetyl transferase. The format is binding, Clostridium difficile. The conditions noted are these: H1L1 at 1:10 (approximately 400 μg/ml), purified His-tag thiolase, band just under 50 kD marker. The method, then:
Cloned and purified acetyl-CoA acetyl transferase was mixed 1:1 with loading buffer and DTT and put on heating block at 90° C. for 5 minutes. 5-15 μl was separated for 35 minutes on a 10% BisTris gel (Invitrogen) using NuPAGE-MES SDS running buffer (Invitrogen).
The proteins were transblotted onto Invitrolon PVDF membrane (Invitrogen Ltd, Carlsbad, Calif., USA) and blocked in 5% skimmed milk in 0.1% Tween20 in 10 mM PBS for 1 hour. The membrane was incubated with H1L1 at 1:10 (concentration approximately 400 μg/ml) in 0.1% Tween20 in 10 mM PBS for 1 hour. Washed three times for 5 minutes with 0.1% Tween20 in 10 mM PBS and then incubated for one hour with S-protein HRP conjugate (Novagen) at 1:1000.
On the technique in general: Immunoblotting shows a protein as a band on a membrane.

Where [4] appears, read: gentamicin + H1L1 combination, Brucella broth.
Setting [5] is: 8 μg/ml of H1L1 and SCFA from 10-50 mM.

C. difficile acetyl-CoA acetyl transferase (thiolase), sequence (as listed by the source): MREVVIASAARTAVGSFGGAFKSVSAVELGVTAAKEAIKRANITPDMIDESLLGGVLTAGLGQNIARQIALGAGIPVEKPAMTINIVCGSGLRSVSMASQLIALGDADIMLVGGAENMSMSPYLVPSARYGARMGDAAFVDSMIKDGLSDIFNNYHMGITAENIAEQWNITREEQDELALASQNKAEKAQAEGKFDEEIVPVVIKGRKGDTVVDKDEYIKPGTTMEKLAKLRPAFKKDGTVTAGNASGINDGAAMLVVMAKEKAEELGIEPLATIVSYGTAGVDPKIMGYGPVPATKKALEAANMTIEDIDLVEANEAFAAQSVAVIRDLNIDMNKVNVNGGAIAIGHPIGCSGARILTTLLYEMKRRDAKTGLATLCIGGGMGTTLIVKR

On to `CN[C@H](CC(C)C)C(=O)N[C@H]1C(=O)N[C@@H](CC(N)=O)C(=O)N[C@H]2C(=O)N[C@H]3C(=O)N[C@H](C(=O)N[C@H](C(=O)O)c4cc(O)cc(O)c4-c4cc3ccc4O)[C@H](O)c3ccc(c(Cl)c3)Oc3cc2cc(c3O[C@@H]2O[C@H](CO)[C@@H](O)[C@H](O)[C@H]2O[C@H]2C[C@](C)(N)[C@H](O)[C@H](C)O2)Oc2ccc(cc2Cl)[C@H]1O` [Vancomycin, vancomycin], for which, in experiment [1], the FICI is reported as 0.125, the “MIC (μg/ml) of each agent Combination” value was 0.125 µg/mL and the Outcome result is reported as “Synergy”. In experiment [1] (Clostridioides difficile, NCR1104, 48 h, read-out: MIC (μg/ml) of each agent Alone), the MIC amounted to 1 µg/mL (≈ 0.69 µM). Also, in experiment [2], the FICI turned out to be 0.37, the “MIC (μg/ml) of each agent Combination” value was 16 µg/mL and the Outcome entry is “Synergy”. The MIC in experiment [2] (Enterococcus faecium, 24 h, read-out: MIC (μg/ml) of each agent Alone) stood at 128 µg/mL.

Turning to gentamicin [reference compound], in the experiment on C. difficile 14000287 (Brucella broth), the “MIC (μg/ml) of each agent Alone” value stood at 8 µg/mL. In the experiment with C. difficile 14000287 (setting [4]), the “FIC (μg/ml)” value turned out to be 0.25, the FICI was determined as 0.266, the “MIC (μg/ml) of each agent Combination” value was 2 µg/mL and the Outcome result was “Synergy”. For the same molecule, the “MIC (μg/ml) of each agent Alone” value with C. difficile NCTC 11204 is 16 µg/mL. Moreover, in the experiment on C. difficile NCTC 11204 (gentamicin + H1L1 combination), the “FIC (μg/ml)” value came to 0.25, the FICI came out at 0.375, the “MIC (μg/ml) of each agent Combination” value was determined as 4 µg/mL and the Outcome result was “Synergy”.

B1: H1L1: synthetic antibody S Tag-CDH1-Linker-CDL1-His Tag, SEQ ID NO: 41, from dominant VH and VL of C. difficile patients; binds acetyl-CoA acetyltransferase (protein)
chain: EVQLVESGPGLVKPSETLSLTCTVSGGSVSSGSYSWSWIRQRPGQGLEWIGFIYYTGYTSYKSSLKSRVSLSVDTSNDQFSLSLSSVTAADTAVYYCAREIRAPDHHDFSGYLGRWGQGTLVTVSSGGSGGGGSGGGGSASKSSELTQDPAVSVALGQTVRITCQGDSLRSYYASWYQQKPGQAPVLVIYGKNNRPSGIPDRFSGSSSGNTASLTITGAQAEDEADYYCNSRDSTGNQLFGGGTKVTVLG
modifications: synthetic H1L1 antibody
As for B1, the “FIC (μg/ml)” value in experiment [1] was 0.0004; in experiment [2] (vancomycin + H1L1 combination), 0.25; in the experiment on C. difficile 14000287 (setting [4]), 0.0156; in the experiment on C. difficile NCTC 11204 (gentamicin + H1L1 combination) it was 0.125. The “MIC (μg/ml) of each agent Combination” value in experiment [1] stood at 0.25 µg/mL; in experiment [2] (vancomycin + H1L1 combination) it was 128 µg/mL; with C. difficile 14000287 (setting [4]), 8 µg/mL; in the experiment on C. difficile NCTC 11204 (gentamicin + H1L1 combination) it was 64 µg/mL. For the same molecule, the Outcome result in experiment [1] was “synergy (key: synergy was defined by a value of <=0.5; indifference was defined by a value of >0.5 to <4; antagonism was defined by a value of >=4.0)”; in experiment [2] (vancomycin + H1L1 combination) it was “synergy (synergy was defined by a value of <=0.5)”; in the experiment on C. difficile 14000287 (setting [4]), “synergy (synergy was defined by a value of <=0.5)”; in the experiment on C. difficile NCTC 11204 (gentamicin + H1L1 combination), “synergy (synergy was defined by a value of <=0.5)”. Further, the “MIC (μg/ml) of each agent Alone” value in experiment [2] (agent alone, 24 h) stood at 512 µg/mL; with C. difficile 14000287 (Brucella broth) it was 512 µg/mL; in the experiment on C. difficile NCTC 11204, 512 µg/mL. In addition, the “Outcome of combination” value in the experiment with C. difficile 14000287 (H1L1 and vancomycin versus C. difficile 14000287) is listed as “synergy (synergy was defined by a value of <=0.5)”. Besides, the “Interaction of H1L1 and SCFA” value in the experiment on Clostridium difficile (setting [5]) was “Synergy”; in the experiment with Clostridium difficile (1, 2 and 4 μg/ml of H1L1 and 5 mM of SCFA (data not shown)), “Indifference”. In the experiment on Clostridium difficile (setting [5]), the “optical density at 24 hours” value is 0.296-0.330. For the same molecule, the “Effect on growth” value is reported as “inhibition” in the experiment with Clostridium difficile (16 μg/ml of H1L1 alone); “No effect” with Clostridium difficile (0.5, 1, 2, 4 and 8 μg/ml of H1L1 alone). The “Mean Optical Density at 24 Hours” value in the experiment with Clostridium difficile (H1L1 0.5 μg/ml alone) was found to be 0.450; with Clostridium difficile (H1L1 1 μg/ml alone), 0.440; in the experiment on Clostridium difficile (H1L1 2 μg/ml alone), 0.440; in the experiment with Clostridium difficile (H1L1 4 μg/ml alone), 0.440; in the experiment on Clostridium difficile (H1L1 8 μg/ml + SCFA 10 mM), 0.310; in the experiment on Clostridium difficile (H1L1 8 μg/ml + SCFA 20 mM), 0.296. Also, the “Mean Optical Density at 24 Hours” value came to 0.305 in the experiment on Clostridium difficile (H1L1 8 μg/ml + SCFA 30 mM); 0.310 in the experiment on Clostridium difficile (H1L1 8 μg/ml + SCFA 40 mM); 0.330 in the experiment with Clostridium difficile (H1L1 8 μg/ml + SCFA 50 mM); 0.420 in the experiment with Clostridium difficile (H1L1 8 μg/ml alone); 0.308 with Clostridium difficile (H1L1 16 μg/ml + SCFA 10 mM); 0.228 with Clostridium difficile (H1L1 16 μg/ml + SCFA 20 mM). Further, the “Mean Optical Density at 24 Hours” value is 0.308 with Clostridium difficile (H1L1 16 μg/ml + SCFA 30 mM), 0.303 in the experiment with Clostridium difficile (H1L1 16 μg/ml + SCFA 40 mM), 0.281 in the experiment on Clostridium difficile (H1L1 16 μg/ml + SCFA 50 mM) and 0.334 in the experiment on Clostridium difficile (H1L1 16 μg/ml alone). Further, the “Immunoblot response to the thiolase band” value in experiment [3] is reported as “strong response”.
